Tests used:
OVA+ cells = assay: Antigen utilization in thigh muscle by flow cytometry (OVA+ cells); assay type: in vivo, C57BL/6 mice; conditions: 5th day
Protocol: Five days later, the mice were killed, and their muscle tissues containing the microspheres were taken out, cut into small pieces with scissors, ground into a suspension, resuspended in PBS at 4° C., and centrifuged to remove the supernatant. To the centrifugal residue, was added 1 mL of a solution of an enzyme mixture (made by dissolving collagenase D and 100 U/mL recombinant DNase I in RPMI 1640 medium) at a concentration of 1 mg/mL. The mixture was incubated at 37° C. for 30 min, washed with PBS, and subjected to filtration with a 20 μm cell sieve to get rid of impurities, giving a single-cell suspension. […] The BD LSRFortessa flow cytometer was used to detect OVA^+ cells, CD 11c^+OVA^+ cells, and F4/80^+OVA^+ cells, and the data was analyzed using the Flowjo software.
In the embedding group, as a result of the excellent antigen-retention capability and antigen-release capability, the number of OVA^+ cells increased by about 50 times, the endocytosis of OVA increased by 4 times or more, and the utilization of the antigen increased by 200 times or more. […] The utilization of the antigen was calculated by normalizing the number of OVA^+ cells multiplied by the fluorescence intensity using the utilization of the antigen of the simple antigen group.

E.G7 tumor cells = assay: E.G7 lymphoma solid tumor model
Protocol: To construct E.G7 tumor-bearing mice models, 1×10^6 E.G7 tumor cells (purchased from ATCC) were injected into 6-8 weeks old female C57BL/6 mice (purchased from Beijing Weitonglihua Experimental Animal Co., Ltd.) on the armpit, and the tumor-bearing mice were randomly divided into groups each consisting of 6 mice. The mice were vaccinated when the tumor grew to a volume of 50-60 mm^3 on the 4th day. […] The volume of the tumor was calculated by this formula: V=1/2×L×W^2 (where L is the length of the tumor, and W is the width of the tumor).

B1: simple antigen group: preparation of a simple fluorescent antigen (OVA labeled with dye Cy5), no carrier (protein, UniProt P01012 2-386, looked up)
Ovalbumin: GSIGAASMEFCFDVFKELKVHHANENIFYCPIAIMSALAMVYLGAKDSTRTQINKVVRFDKLPGFGDSIEAQCGTSVNVHSSLRDILNQITKPNDVYSFSLASRLYAEERYPILPEYLQCVKELYRGGLEPINFQTAADQARELINSWVESQTNGIIRNVLQPSSVDSQTAMVLVNAIVFKGLWEKAFKDEDTQAMPFRVTEQESKPVQMMYQIGLFRVASMASEKMKILELPFASGTMSMLVLLPDEVSGLEQLESIINFEKLTEWTSSNVMEERKIKVYLPRMKMEEKYNLTSVLMAMGITDVFSSSANLSGISSAESLKISQAVHAAHAEINEAGREVVGSAEAGVDAASVSEEFRADHPFLFCIKHIATNAVLFFGRCVSP
modifications: Cy5 dye label
notes: preparation of a simple fluorescent antigen (OVA labeled with dye Cy5), no carrier
OVA+ cells
  fluorescence intensity of intracellular OVA: very weak
  number of OVA+ cells: small

B2: OVA: free OVA antigen (Sigma), low-dose several times or high-dose (60 μg) a single time (protein, UniProt P01012 2-386, looked up)
Ovalbumin: B1 Ovalbumin
E.G7 tumor cells; mouse, in vivo
  25-day survival rate (SR): 17%
E.G7 tumor cells; vaccinated on 4th day
  tumor growth (E.G7): not inhibited

From patent publication US12397052B2, “Microcapsule-based vaccine” (INSTITUTE OF PROCESS ENGINEERING, CHINESE ACADEMY OF …, priority 2018, dated 2025)
